The assay has as its target N-terminal domain of Bag2 (Bag2-NTD). The experiment in a line: SEC. In general terms: In gel filtration, larger molecules generally elute earlier.

N-terminal domain of Bag2 (Bag2-NTD) (domain or fragment), sequence (Q91YN9 104-194): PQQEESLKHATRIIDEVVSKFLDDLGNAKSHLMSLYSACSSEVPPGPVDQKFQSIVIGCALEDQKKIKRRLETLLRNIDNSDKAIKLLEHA

The term stoichiometry N denotes the number of molecules, sites or subunits per partner or assembly. Substance “N-terminal domain of Bag2 (Bag2-NTD) (domain or fragment)” had a stoichiometry N of 2.
